Results published in article PMC6657065.
Blank lines part the entries; values can stand above or below the substance they belong to.

Columns and labels:
Test in all cases: SEC; Superdex-200 on FPLC after TEV removal of the MBP tag; 20 mM NaH2PO4 pH 7.0, 0.3 M NaCl, 1 mM TCEP, 10% glycerol, 0.005% FC-16; 4 °C; mass by regression against gel filtration standards (Bio-Rad); self-association, oligomer size
[1] = target: Bambusa oldhamii cellulose synthase BoCesA7 (Bambusa oldhamii)
[2] = target: Bambusa oldhamii cellulose synthase BoCesA5 (Bambusa oldhamii)
[3] = target: Bambusa oldhamii cellulose synthase BoCesA2 (Bambusa oldhamii)
[4] = target: Bambusa oldhamii cellulose synthase BoCesA4 (Bambusa oldhamii)
[5] = target: Bambusa oldhamii cellulose synthase BoCesA1 (Bambusa oldhamii)
[6] = target: Bambusa oldhamii cellulose synthase BoCesA3 (Bambusa oldhamii)

stoichiometry N [1]: 6
Substance: Bambusa oldhamii cellulose synthase BoCesA7 (enzyme)

stoichiometry N [2]: 6
Substance: Bambusa oldhamii cellulose synthase BoCesA5 (enzyme)

stoichiometry N [3]: 6
Substance: Bambusa oldhamii cellulose synthase BoCesA2 (enzyme)

stoichiometry N [4]: 6
Substance: Bambusa oldhamii cellulose synthase BoCesA4 (enzyme)

stoichiometry N [5]: 6
Substance: Bambusa oldhamii cellulose synthase BoCesA1 (enzyme)

stoichiometry N [6]: 6
Substance: Bambusa oldhamii cellulose synthase BoCesA3 (enzyme)
